Measurements reported in article PMC5856381 (2018).

Assays:
[1] = target: T1, hemoglobin (Hb), human, cell-free (human, UniProt P69905 1-142; P68871 1-147); assay: SPR
[2] = target: T1, hemoglobin (Hb), human, cell-free; assay: SPR; remark: listed apart in the source

T1 sequence (P69905 whole entry, chain 1 of 2): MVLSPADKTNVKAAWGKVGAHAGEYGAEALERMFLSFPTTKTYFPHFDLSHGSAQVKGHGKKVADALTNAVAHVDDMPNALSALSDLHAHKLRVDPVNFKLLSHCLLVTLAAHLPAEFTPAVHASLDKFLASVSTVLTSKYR
T1 sequence (P68871 whole entry, chain 2 of 2): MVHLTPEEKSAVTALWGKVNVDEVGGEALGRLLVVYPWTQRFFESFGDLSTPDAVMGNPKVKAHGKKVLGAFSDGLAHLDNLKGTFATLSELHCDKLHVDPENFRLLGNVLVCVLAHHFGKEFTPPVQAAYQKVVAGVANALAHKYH

- koff [1]: < 5e-05 s⁻¹
- Kd [2]: < 0.042 nM
B1: recombinant haptoglobin Hp1F, C1r-LP processed (natural protein)
chain 1: VDSGNDVTDIADDGCPKPPEIAHGYVEHSVRYQCKNYYKLRTEGDGVYTLNDKKQWINKAVGDKLPECEAVCGKPKNPANPVQ
chain 2: ILGGHLDAKGSFPWQAKMVSHHNLTTGATLINEQWLLTTAKNLFLNHSENATAKDIAPTLTLYVGKKQLVEIEKVVLHPNYSQVDIGLIKLKQKVSVNERVMPICLPSKDYAEVGRVGYVSGWGRNANFKFTDHLKYVMLPVADQDQCIRHYEGSTVPEKKTPKSPVGVQPILNEHTFCAGMSKYQEDTCYGDAGSAFAVHDLEEDTWYATGILSFDKSCAVAEYGVYVKVTSIQDWVQKTIAEN
modifications: Hp1F built from the first (F) repeat of Hp2FS (mature Asp52/Lys53 = precursor D70/K71); C1r-LP cleaves after R161 (Arg omitted from alpha chain per UniProt convention); alpha-beta and inter-alpha disulfides; N-glycosylated; C-terminal 8xHis tag omitted
